Experimental findings from the DeepSol protein solubility set are described below.

This data set is described as follows: soluble on expression in E. coli; label from the status in PepcDB or PDB records.
For “MAHHHHHHMAWTVHEDEYRTEGYDNLEEILQYVVHTEESVQQSKPTVKYTKSSQVFATPSPLTAAELSSPIKHQLTNTVPWQPQSHTPTNSSFHSLGIPYTSAQSPQQRRCNNRFNGSYSGQCDRKPKIMSSSETCILSPGARKRGMGTGQMDHMMATELNEMPMPELITQEVLASKDMMVGGGYSDWSGSGSKYFQSGALTADSLRGRVYETAKDQHGCRYLQRWLDTNCDPEALQVMMNEIIPHVGELMTDQYANFLIQKLFDIMPDDVRYKVAIVAAPQICMISLTPHGTFSVQKMIETISTREEMEIISEALCKDVVRLVKDAHGNHVIQKVLQRFDFDDKEYIYRAVATDCVSIAKNKQGCCVLQRCLEHASPRQKAALVDQVLACCLQIVQDPFGNYVLQYVLEEHDSKINDTIALAFLPHLVQLSMNKFSSNVMEKVLRGASGPVQVMYMEEMCNPEIISHLIQDDYGNYVLQTALTINAPVQAAQLVNVIRPFMPLIRNAPYAKKMEGKMENVARKVECNHFHAPRDCEVDARQGSSGGSPHGKFDRSPNHGRHYVGGTDQQQPYNHPT”, the “soluble on expression in E. coli” value was “not soluble”.

As to “MGSDKIHHHHHHMRLDSISIANFRNHTLLEFEPGHSITNIYGRNGSGKTSILEAIHYCALTRGFSGNNDREYLKFGEELFTIRSSFTSGQGIATKVSITYSPKREKRILVNEQELQTFSSHIGTIPCVTFTPREMVIINGAPAERRRFIDTAICQYDRKYLSDLLLYRRILQQRNALLSSEQDPRVIDSALDVLTDQLVAIATEIVLVRKRFIEHFTSMLGGVYQWIPEGAEPSILYQSSLGHHENLYEKDKIQQVFRERFETLKQQELQRRQTLAGPHRDDLQFYLNKREIRKYASQGQQRAFLVAMKMTLQGYLYEASGEIPITLLDDLFSELDEVVSGTMVETLATKGQVIITSTEKKKGKGISFFSVDDYKSSKEP”, the “soluble on expression in E. coli” value is recorded as “not soluble”. The result for “ELQVLDTWQGDVVRDTKTLSGGESFLVSLALALALSDLVSHKTSIDSLFLDEGFGTLDSETLDMALDALDNLNASGKMIGVISHIEAMKERIPVQIKVTKRSGLGVSELEKQYKKVS” reads “not soluble”. With “MGSSHHHHHHSSGLVPRGSHMKNYARISCTSRYVPENCVTNHQLSEMMDTSDEWIHSRTGISERRIVTQENTSDLCHQVAKQLLEKSGKQASEIDFILVATVTPDFNMPSVACQVQGAIGATEAFAFDISAACSGFVYALSMAEKLVLSGRYQTGLVIGGETFSKMLDWTDRSTAVLFGDGAAGVLIEAAETPHFLNEKLQADGQRWAALTSGYTINESPFYQGHKQASKTLQMEGRSIFDFAIKDVSQNILSLVTDETVDYLLLHQANVRIIDKIARKTKISREKFLTNMDKYGNTSAASIPILLDEAVENGTLILGSQQRVVLTGFGGGLTWGSLLLTLEF” the entry was “soluble”; with “MSLVYTEVPKSVATFMETITEKCGEAHQDWAKNFQAAFANTLLTTVKRQEDGTTFLLTGDIPAMWLRDSTAQVRPYLVIAKEDEDLAQMIAGLVKRQFRYICIDPYANAFNETDNHAGHQTDKTEMNGWIWERKYEIDSLCYPVQLAYLLYKNTGMTEQFNSDFVEGVKKILNVFTTEQDHAQSPYLFERDTWRQEDTLVEAGKGTPVGKTGMTWSGFRPSDDACQYGYLVPSNMFAVVILGYIQEIFSDVLEDATIGAIAKKLQEEIEEGIQTFGRTKNQNNETIYAYEVDGLGNASVMDDSNVPNLVAAPYLGYCSTEDEQYLTTRQTLLSKENPYFYEGKYAKGIGSSHTPENYVWPIALAMEGMTTKDKAEKERILDLLVATDAGTHLMHEGFDVDNPENYTREWFSWANMMFCELVMDYFDIRVEKEGGSHHHHHH”, “soluble”; with “TERFRLTLAQLNPTVGDLAGNAALARRAWDEARAAGSDMLALTEMFVTGYQTQDLVLRRAFVEEAMATIERLAADCAEGPAIGIGGPCLEDGRLMNAYWVLEGGRVSARVFKHHLPNAEVFDEKRVFSSGEVHGPCRVGPLRIGIPICEDSWHPDVCETLAETGAEILLVPNGSPYHREKLDVRVNLMVTRVVETGLPLVYLNMVGGQDDQVFDGASFVLNPHGRLMAQLPAFEEALVHVDFE”, “not soluble”. For the sequence “MGSDKIHHHHHHFKSKGKKSKRKKRNYFDSEDDDDESESETKYGGKFGKKKLEGLQKRLRETESAMSKILEQLESVQAGANPVDLDAADKRSEQLEEDPSVKEAVGLTETNEQYIKDLEVALKEFQSLSKEYDKAKMKKLKRKDSSSDEDEEDEEENSSELSEIEEEEEEVKPVKKSKSSSQSVGKRKNRPKSTSEEEDEGEEESRKVAEDAEEEGIDIDSEIREHAEKEKKDKNVRRRRPKKT”, the “soluble on expression in E. coli” value is on record as “not soluble”. With “MDNEKKSMYEPGVILGGCTLRRQLNDSGEAMVFLAESGNEEKKEVIIKFFKCGYGEDEIKYLDVLTNHEQRRNIVEMLKSFETPEIRLGMVFKRYETDLFGILGDRQRLQPSTIQKYMKGLMEGLQFIHRMDYIHRDIKPENLLIDGETICIADFGETVLSTSDKVVKPGTLPYLTIEHILGYKENTKSMDIWAAACVLGAMFQGSHLFSQNSNLQTIHAIRLLLGNHTKETWPEMDKLPLMQSIELPPVGEKTFSKIENITKEAADLMEQMMKYDPTKRLMASQVLNHEYFKKEASAQAN” the entry was “not soluble”.

For the sequence “MRDEKRKAIPAIGFYPQEEISTGTTLIAMEYNGGVVVGTDSRTSAGSFITSRATNKITPITDNMVVCRSGSAADTQAIADIAKYHIDVYTMTENKPVTIYRSSQIFRQFLYNYREQLSASVLVAGWDEELGGQVYAIPIGGFVSRQRSTASGSGSTFVQGFLDSQWRPNLTLEECKAIVKQAVGLATFRDGSSGGVVRLAVINKAGSQFELFRPDKPGFPFVQTPTPHLSFPPHIEQVL”, the “soluble on expression in E. coli” value is given as “not soluble”. “MVSITSDAIRNALHKVKGPNFESDIVSLGLLSEILVVHGKVFFSITVPDGRVQEWESLRRSVEEVVSALDGVEAVFVTLTTERRPEMSSQLQRDEVFFAPKRRANRLLEKMPIEGVRHVVAVASGKGGVGKSTMAINIALALQDSGFKTGLMDADIYGPSLPRLTGLVNQKPQYIDGKKLHPLEKFGLKLMSMGFLVEEENPVVWRGPMVMAAVTQLLRDVLWGPLDVLVVDMPPGTGDAQLTLAQQVQLTGALIVSTPQDLALVDARKAMEMFMKVNVPILGLIENMSYFIAPDTGKRYDIFGYGGTRAEARRRGVPFLAEVPLDAALRSSSDDGIPIFVAKPDEEHTKLYRSIVGQIKNKFF”: the “soluble on expression in E. coli” value is “not soluble”.

In the case of “MHRTARNFAEIKPNLLFRKAKMARKSAEKYVAKKIQVPELQGEALFGLHSVLEAIRSGKRDFHSVFLKKAVENRADSDARIKEILSRIDELGIQKTLLTDDQLDRLTEFQLHNGICMDASALQFSNFEPKTVSIFVDKVLDPGNLGAIGRSAWYFGADGLGLVKGRGPKSITPAMIKSSCGALEHLPVQQFLNFNEFRDKIKAAGGELVATCDPGAAEKAGISAKSLDQWTPEKPVGIVLGDEGVGISRGILNLCDTVISISPVRKDGSNVTSLNVSVVAGILLHHISLQNRTN”, the “soluble on expression in E. coli” value is “not soluble”.

In the case of “MAKKSSGSAPSRASGRSGKQTTHFQVVHDATKHRAKRSKSSKSGDSKSSSQDASVKKILDHKLFNTHYVEYNVLLSNGRKMMATEFDFEGKKEQKLLADYKYKITNQDDDPDEDFAVEKIIAHRFSGKKNKPLFLVMWRGYPNPVSHSEMWENELSNCKDLLEAYKDSHDMKPPPVKKSNKKKGSKKSPKKSAKSKDDDSSDEEEEEEVKEKSPKKSSKSTKRAASDDDEEEEPVATKKSKKSKRAETPEEEDDEEEEVVKTPKKTKKSKRAETPEEEDEVEEEVVKTPKKSKSSKSPKKSKRAETSDEEDEDEEDEKEAPKSSKKQEKAKSSKRVAEDSGNEEEDQDNTSGSGSEGEEEEEEASSNGKRKSRH”, the “soluble on expression in E. coli” value is “not soluble”. With “SLERPPALAMPMPTEGTPPPLSGTPIPVPAYFRHAEPGFSLKRPRGLSRSLPPPPPAKGSIPISRLFPPRTPGWHQLQPRRVSFRGEASETLQSPGYDPSRPESFFQQSFQRLSRLGHGSYGEVFKVRSKEDGRLYAVKRSMSPFRGPKDRARKLAEVGSHEKVGQHPCCVRLEQAWEEGGILYLQTELCGPSLQQHCEAWGASLPEAQVWGYLRDTLLALAHLHSQGLVHLDVKPANIFLGPRGRCKLGDFGLLVELGTAGAGEVQEGDPRYMAPELLQGSYGTAADVFSLGLTILEVACNMELPHGGEGWQQLRQGYLPPEFTAGLSSELRSVLVMMLEPDPKLRATAEALLALPVLRQPRAWGVLWCMAAEALSRGWALWQALLALLCWLWHGLAHPASWLQPLGPPATPPGSPPCSLLLDSSLSSNWDDDSLGPSLSPEAVLARTVGSTSTPRSRCTPRDALDLSDINSEPPRGSFPSFEPRNLLSLFEDTLDPT” the entry was “soluble”; with “MIDVPFLKNVTLKKENIPSFSAYPYCLPAIRTLQSLAFHPNVTFIIGENGTGKSTLLEGIAIALGFNAEGGTKNFRFSTNDSHSSLHEYLRISKSFNTPSDGFFLRAESFYNVASYIDEIDADLEARGNPVIDSYGGISLHEQSHGESFFSLFMNRFSGQGLYILDEPEAALSPMRQLSMLIRMHELAEQGSQFVIATHSPILMAYPESTIYSLTQEGIQESALEDTEHYQTTKLFFENRDRLFHHLFNSLEHHHHHH”, “soluble”. With “MSSAQRVVITPGEPAGSGPDLVVQLAQRAWPIELVVCADGALLTERAAMLGLPLSLLPYSPDVPAAPQPAGTLTLLPVSLRAPAISGQLTVENGPYVVETLARACDGCLNGEFAALITGPVHKGVINDAGISFTGHTEFFEERSQAKKVVMMLATEELRVALATTHLPLRAIADAITPALLHEVIAILHHDLRTKFGIAEPRILVCGLNPHAGEGGHMGTEEIDTIIPVLDELRAQGMKLNGPLPADTLFQPKYLDNADAVLAMYHDQGLPVLKYQGFGRGVNITLGLPFIRTSVDHGTALELAGRGKADVGSFITALNLAIKMIVNTQ” the entry was “soluble”. Regarding “MSLSKNKYLFKYLIVDRKKLDPSYTYKYDNIQWNHKIIAIGDIHGDVESLKLILRHSNLIDENDEWIAEDVMLVQVGDILDRGVFGTYIYDYLLKLQKDAIKKNSKVILIMGNHEQLNLCGAFHYVNESEVMLFFQNNRNNRLFSFTNKNGYYFKKLIRLPVIVKINNIIFTHGGISKHMSEYDINTINLKTRLQIENKCKMFQFEKYNYLSKEGVLWNNEISHQVKLQPKKTCKHLRNILKKYNAKGLVVGHTRQKSHEIQTYCNNSFFLIDTGMSLFMNNGQPYPNYLQIEKGKFKTVHLIVQEYNRKEGHHHHHH”, the “soluble on expression in E. coli” value is on record as “not soluble”.

Regarding “VLNHSIEVALLAGYMASELGLNADKARRGGLLHDIGKAVDQELEGSHTTIGAELARRYGEKEDIINMILSHHGEEEPMTP”, the “soluble on expression in E. coli” value is “not soluble”. Turning to “MGSDKIHHHHHHMYTFQPGDHLVTNIDPLGLTEHHGLYVGHGHVIHLSKQGIIEEINLQQFAGGHSVRVKKSTLFPHQAIELARSQLGHSPYGVATNNCEHFVNECLEGSSTSNQVSNLTHIALQGSARAGLLGSSASKLATGTVANVVLTSTAIKMTGEYLGLPDNVNTLLGTPGDLVAKPAECLLKGTSQTLGETYTCLRQGEMTGAGIKLVTGSIETGLNTVLTTAEVGINGVKAGAELIADAWHWLRS”, the “soluble on expression in E. coli” value is recorded as “not soluble”. As for “MIDLHTHTIFSDGELIPSELVRRAVIHGYEAIALTDHADYTNLEQLLDAAKKAKYLEEEWDIRVLSGVELTHVPPRKIAPMAKKAKELGAEIVVVHGETISEPVAQGTNAASAACEYVDILAHPGLISEEDVRTAAENNVFLELTARNGHNRTNGHVARLALEFGATLVVNTDTHAPENLITDETALKIAMGAGL”, the “soluble on expression in E. coli” value was “not soluble”. For the sequence “MSEVIDLASPIEAHGETLSQVTFRRPTAQEARAIKALPYKIDKNEDVSLDLDVAAKYIAVCAGIPPSSVNQMDLCDINTLSWKVASFFMAAASATLKD”, the “soluble on expression in E. coli” value was “soluble”.
